# Measurements published in publication PMC10256812.
# B1: HA-tagged SREBF1 (wild type), expressed in C4-2B cells [not stated] / KAT2A/GCN5, endogenous [human (endogenous in C4-2B, LAPC4)] (parent)
# chain 1: MDEPPFSEAALEQALGEPCDLDAALLTDIEDMLQLINNQDSDFPGLFDPPYAGSGAGGTDPASPDTSSPGSLSPPPATLSSSLEAFLSGPQAAPSPLSPPQPAPTPLKMYPSMPAFSPGPGIKEESVPLSILQTPTPQPLPGALLPQSFPAPAPPQFSSTPVLGYPSPPGGFSTGSPPGNTQQPLPGLPLASPPGVPPVSLHTQVQSVVPQQLLTVTAAPTAAPVTTTVTSQIQQVPVLLQPHFIKADSLLLTAMKTDGATVKAAGLSPLVSGTTVQTGPLPTLVSGGTILATVPLVVDAEKLPINRLAAGSKAPASAQSRGEKRTAHNAIEKRYRSSINDKIIELKDLVVGTEAKLNKSAVLRKAIDYIRFLQHSNQKLKQENLSLRTAVHKSKSLKDLVSACGSGGNTDVLMEGVKTEVEDTLTPPPSDAGSPFQSSPLSLGSRGSGSGGSGSDSEPDSPVFEDSKAKPEQRPSLHSRGMLDRSRLALCTLVFLCLSCNPLASLLGARGLPSPSDTTSVYHSPGRNVLGTESRDGPGWAQWLLPPVVWLLNGLLVLVSLVLLFVYGEPVTRPHSGPAVYFWRHRKQADLDLARGDFAQAAQQLWLALRALGRPLPTSHLDLACSLLWNLIRHLLQRLWVGRWLAGRAGGLQQDCALRVDASASARDAALVYHKLHQLHTMGKHTGGHLTATNLALSALNLAECAGDAVSVATLAEIYVAAALRVKTSLPRALHFLTRFFLSSARQACLAQSGSVPPAMQWLCHPVGHRFFVDGDWSVLSTPWESLYSLAGNPVDPLAQVTQLFREHLLERALNCVTQPNPSPGSADGDKEFSDALGYLQLLNSCSDAAGAPAYSFSISSSMATTTGVDPVAKWWASLTAVVIHWLRRDEEAAERLCPLVEHLPRVLQESERPLPRAALHSFKAARALLGCAKAESGPASLTICEKASGYLQDSLATTPASSSIDKAVQLFLCDLLLVVRTSLWRQQQPPAPAPAAQGTSSRPQASALELRGFQRDLSSLRRLAQSFRPAMRRVFLHEATARLMAGASPTRTHQLLDRSLRRRAGPGGKGGAVAELEPRPTRREHAEALLLASCYLPPGFLSAPGQRVGMLAEAARTLEKLGDRRLLHDCQQMLMRLGGGTTVTSS
# chain 2: MAEPSQAPTPAPAAQPRPLQSPAPAPTPTPAPSPASAPIPTPTPAPAPAPAAAPAGSTGTGGPGVGSGGAGSGGDPARPGLSQQQRASQRKAQVRGLPRAKKLEKLGVFSACKANETCKCNGWKNPKPPTAPRMDLQQPAANLSELCRSCEHPLADHVSHLENVSEDEINRLLGMVVDVENLFMSVHKEEDTDTKQVYFYLFKLLRKCILQMTRPVVEGSLGSPPFEKPNIEQGVLNFVQYKFSHLAPRERQTMFELSKMFLLCLNYWKLETPAQFRQRSQAEDVATYKVNYTRWLCYCHVPQSCDSLPRYETTHVFGRSLLRSIFTVTRRQLLEKFRVEKDKLVPEKRTLILTHFPKFLSMLEEEIYGANSPIWESGFTMPPSEGTQLVPRPASVSAAVVPSTPIFSPSMGGGSNSSLSLDSAGAEPMPGEKRTLPENLTLEDAKRLRVMGDIPMELVNEVMLTITDPAAMLGPETSLLSANAARDETARLEERRGIIEFHVIGNSLTPKANRRVLLWLVGLQNVFSHQLPRMPKEYIARLVFDPKHKTLALIKDGRVIGGICFRMFPTQGFTEIVFCAVTSNEQVKGYGTHLMNHLKEYHIKHNILYFLTYADEYAIGYFKKQGFSKDIKVPKSRYLGYIKDYEGATLMECELNPRIPYTELSHIIKKQKEIIKKLIERKQAQIRKVYPGLSCFKEGVRQIPVESVPGIRETGWKPLGKEKGKELKDPDQLYTTLKNLLAQIKSHPSAWPFMEPVKKSEAPDYYEVIRFPIDLKTMTERLRSRYYVTRKLFVADLQRVIANCREYNPPDSEYCRCASALEKFFYFKLKEGGLIDK
# Variants of: B1
# Assay: co-immunoprecipitation (anti-HA affinity gel, immunoblot with KAT2A antibody), band quantification
# Conditions: with KAT2A/GCN5, endogenous [human (endogenous in C4-2B, LAPC4)]; C4-2B cells; + Abi; parent: 1
row,Variant,response
1,chain 1 Y673A Y951A,0.01
